From patent US20240052029A1 (BIOHENG THERAPEUTICS, published 2024)

B1: 6V8 anti-ROR1 humanized scFv, as chimeric antigen receptor on CAR-T cells (scFv)
scFv: ETTLTQSPATLSVSPGEKVIIRCITSTDIDEDMNWYQQKPGQPPKLLISEGNTLRPGVPSRFSGSGSGTDFTLTISSLQPEDVATYYCLQSNNMPLTFGAGTKLELKGGGGSGGGGSGGGGSQVQLQESGPGLVKPSQTLSLTCTVTAYSITSDYAWNWIRQFPGNKLEWMGYISYSGFTRYNPSLKSRISITRDTSKNQFFLKLNFVTTEDTATYYCARGEITYYFDYWGQGTTLTVSSESKYGPPCPPCPIYIWAPLAGTCGVLLLSLVITLYCKRGRKKLLYIFKQPFMRPVQTTQEEDGCSCRFPEEEEGGCELRVKFSRSADAPAYQQGQNQLYNELNLGRREEYDVLDKRRGRDPEMGGKPRRKNPQEGLYNELQKDKMAEAYSEIGMKGERRRGKGHDGLYQGLSTATKDTYDALHMQALPPR
notes: Humanized from murine ROR1-4
B2: 6V11 anti-ROR1 humanized scFv, as chimeric antigen receptor on CAR-T cells (scFv)
scFv: ETTLTQSPATLSVSPGERAIIRCITSTDIDEDMNWYQQKPGQPPKLLISEGNTLRPGVPSRFSGSGSGTDFTLTISSLQPEDVATYYCLQSNNMPLTFGAGTKLELKGGGGSGGGGSGGGGSQVQLQESGPGLVKPSQTLSLTCTVSAYSITSDYAWNWIRQFPGNKLEWIGYISYSGFTRYNPSLKSRISITRDTSKNQYYLQLNSVTTEDTATYYCARGEITYYFDYWGQGTTLTVSSESKYGPPCPPCPIYIWAPLAGTCGVLLLSLVITLYCKRGRKKLLYIFKQPFMRPVQTTQEEDGCSCRFPEEEEGGCELRVKFSRSADAPAYQQGQNQLYNELNLGRREEYDVLDKRRGRDPEMGGKPRRKNPQEGLYNELQKDKMAEAYSEIGMKGERRRGKGHDGLYQGLSTATKDTYDALHMQALPPR
notes: Humanized from murine ROR1-4
B3: 6V13 anti-ROR1 humanized scFv, as chimeric antigen receptor on CAR-T cells (scFv)
scFv: ETTLTQSPATLSVSPGEKVIIRCITSTDIDEDMNWYQQKPGQPPKLLISEGNTLRPGVPSRFSSSGSGTDFTLTISSLQPEDVATYYCLQSNNMPLTFGAGTKLELKGGGGSGGGGSGGGGSQVQLQESGPGLVKPSQTLSLTCTVSAYSITSDYAWNWIRQFPGNKLEWIGYISYSGFTRYNPSLKSRISITRDTSKNQYYLQLNSVTTEDTATYYCARGEITYYFDYWGQGTTLTVSSESKYGPPCPPCPIYIWAPLAGTCGVLLLSLVITLYCKRGRKKLLYIFKQPFMRPVQTTQEEDGCSCRFPEEEEGGCELRVKFSRSADAPAYQQGQNQLYNELNLGRREEYDVLDKRRGRDPEMGGKPRRKNPQEGLYNELQKDKMAEAYSEIGMKGERRRGKGHDGLYQGLSTATKDTYDALHMQALPPR
notes: Humanized from murine ROR1-4
B4: 6V9 anti-ROR1 humanized scFv, as chimeric antigen receptor on CAR-T cells (scFv)
scFv: ETTLTQSPATLSVSPGEKVIIRCITSTDIDEDMNWYQQKPGQPPKLLISEGNTLRPGVPSRFSGSGSGTDFTLTISSLQPEDVATYYCLQSNNMPLTFGAGTKLELKGGGGSGGGGSGGGGSQVQLQESGPGLVKPSQTLSLTCTVSAYSITSDYAWNWIRQFPGNKLEWIGYISYSGFTRYNPSLKSRISITRDTSKNQYYLQLNSVTTEDTATYYCARGEITYYFDYWGQGTTLTVSSESKYGPPCPPCPIYIWAPLAGTCGVLLLSLVITLYCKRGRKKLLYIFKQPFMRPVQTTQEEDGCSCRFPEEEEGGCELRVKFSRSADAPAYQQGQNQLYNELNLGRREEYDVLDKRRGRDPEMGGKPRRKNPQEGLYNELQKDKMAEAYSEIGMKGERRRGKGHDGLYQGLSTATKDTYDALHMQALPPR
notes: Humanized from murine ROR1-4
B5: 6V10 anti-ROR1 humanized scFv, as chimeric antigen receptor on CAR-T cells (scFv)
scFv: ETTLTQSPATLSVSPGERAIIRCITSTDIDEDMNWYQQKPGQPPKLLISEGNTLRPGVPSRFSGSGSGTDFTLTISSLQPEDVATYYCLQSNNMPLTFGAGTKLELKGGGGSGGGGSGGGGSQVQLQESGPGLVKPSQTLSLTCTVTAYSITSDYAWNWIRQFPGNKLEWMGYISYSGFTRYNPSLKSRISITRDTSKNQFFLKLNFVTTEDTATYYCARGEITYYFDYWGQGTTLTVSSESKYGPPCPPCPIYIWAPLAGTCGVLLLSLVITLYCKRGRKKLLYIFKQPFMRPVQTTQEEDGCSCRFPEEEEGGCELRVKFSRSADAPAYQQGQNQLYNELNLGRREEYDVLDKRRGRDPEMGGKPRRKNPQEGLYNELQKDKMAEAYSEIGMKGERRRGKGHDGLYQGLSTATKDTYDALHMQALPPR
notes: Humanized from murine ROR1-4
B6: 6V12 anti-ROR1 humanized scFv, as chimeric antigen receptor on CAR-T cells (scFv)
scFv: ETTLTQSPATLSVSPGEKVIIRCITSTDIDEDMNWYQQKPGQPPKLLISEGNTLRPGVPSRFSSSGSGTDFTLTISSLQPEDVATYYCLQSNNMPLTFGAGTKLELKGGGGSGGGGSGGGGSQVQLQESGPGLVKPSQTLSLTCTVTAYSITSDYAWNWIRQFPGNKLEWMGYISYSGFTRYNPSLKSRISITRDTSKNQFFLKLNFVTTEDTATYYCARGEITYYFDYWGQGTTLTVSSESKYGPPCPPCPIYIWAPLAGTCGVLLLSLVITLYCKRGRKKLLYIFKQPFMRPVQTTQEEDGCSCRFPEEEEGGCELRVKFSRSADAPAYQQGQNQLYNELNLGRREEYDVLDKRRGRDPEMGGKPRRKNPQEGLYNELQKDKMAEAYSEIGMKGERRRGKGHDGLYQGLSTATKDTYDALHMQALPPR
notes: Humanized from murine ROR1-4

Each binder was assayed against T1, ROR1-hFc (Acrobio brand, Cat. No. R01-H5250) protein (UniProt Q01973 30-403) (assay: flow cytometry: CAR-T cells stained with ROR1-hFc, then PE anti-human IgG Fc).
T1 construct: Bought reagent; not shown: hFc (human Fc, detected with anti-human IgG Fc)
T1 sequence (Q01973 30-403): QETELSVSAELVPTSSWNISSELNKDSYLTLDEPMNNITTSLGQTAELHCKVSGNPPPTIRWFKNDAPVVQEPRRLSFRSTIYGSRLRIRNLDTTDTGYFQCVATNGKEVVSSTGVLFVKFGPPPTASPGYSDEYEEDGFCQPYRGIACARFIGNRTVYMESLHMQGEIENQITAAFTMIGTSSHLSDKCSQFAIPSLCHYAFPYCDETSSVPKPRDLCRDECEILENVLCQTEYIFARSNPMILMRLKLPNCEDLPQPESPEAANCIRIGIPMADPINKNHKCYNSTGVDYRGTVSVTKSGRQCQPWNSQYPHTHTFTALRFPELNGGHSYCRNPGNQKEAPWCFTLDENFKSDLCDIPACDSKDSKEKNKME
Method: After culturing at 37° C. and 5% CO₂ for 11 days, the above CAR-T cells, ROR1-4 CAR-T-2 cells (replacing the CD8α hinge region in the ROR1-4 CAR-T cells with the IgG4 hinge region) and Wild-type T cells (NT, used as negative control) were incubated with ROR1-hFc (Acrobio brand, Cat. No. R01-H5250) protein for 45 minutes, and after washing, PE anti-human IgG Fc Antibody (Biolegend brand, Cat. No. 410708) was added to incubate for 30 minutes. The expression level of the anti-ROR1 single chain antibody on the CAR-T cells was detected by flow cytometry, and the results are shown in FIG. 4.
B1: binds. B2: binds. B3: binds. B4: binds. B5: binds. B6: binds.
